Results on eight sequences are retold here after the DeepSol protein solubility set.

The nature of this data set: soluble on expression in E. coli; label from the status in PepcDB or PDB records.
Regarding “QYYDYDFPLSIYGQSSPNCAPECNCPESYPSAMYCDELKLKSVPMVPPGIKYLYLRNNQIDHIDEKAFENVTDLQWLILDHNLLENSKIKGRVFSKLKQLKKLHINHNNLTESVGPLPKSLEDLQLTHNKITKLGSFEGLVNLTFIHLQHNRLKEDAVSAAFKGLKSLEYLDLSFNQIARLPSGLPVSLLTLYLDNNKISNIPDEYFKRFNALQYLRLSHNELADSGIPGNSFNVSSLVELDLSYNKLKNIPTVNENLENYYLEVNQLEKFDIKSFCKILGPLSYSKIKHLRLDGNRISETSLPPDMYECLRVANEVTLN”, the “soluble on expression in E. coli” value is on record as “not soluble”.
For the sequence “VFPSSVYVPDEWEVSREKITLLRELGQGSFGMVYEGNARDIIKGEAETRVAVKTVNESASLRERIEFLNEASVMKGFTCHHVVRLLGVVSKGQPTLVVMELMAHGDLKSYLRSLRPEAENNPGRPPPTLQEMIQMAAEIADGMAYLNAKKFVHRDLAARNCMVAHDFTVKIGDFGMTRDIYETDYYRKGGKGLLPVRWMAPESLKDGVFTTSSDMWSFGVVLWEITSLAEQPYQGLSNEQVLKFVMDGGYLDQPDNCPERVTDLMRMCWQFNPNMRPTFLEIVNLLKDDLHPSFPEVSFFHSEENK”, the “soluble on expression in E. coli” value is “soluble”.
With “MEKLTMQEEEVMIYIWELESCYVKDIVAKFEQPTPPYTTVASIVKNLERKKYVKAQRVGNTYLYTPSIKESEYKRSFMSGVVRNYFENSYKEMVSFFAKDQKISTNDLKEIIDMIEKGQEK”, the “soluble on expression in E. coli” value was “not soluble”.
For the sequence “MGSDKIHHHHHHMKVNILMSTYNGQEFIAQQIQSIQKQTFENWNLLIRDDGSSDETPKIIADFAKSDARIRFINADKRENFGVIKNFYTLLKYEKADYYFFSDQDDVWQPQKLELTLASVEKENNQIPLMVYTDLTVVDRDLQVLHDSMIKTQSHHANTSLLEELTENTVTGGTMMVNHCLAKQWKQCYDDLIMHDWYLALLAASLGKLIYLDETTELYRQHESNVLGARTWSKRLKNWLRPHRLVKKYWWLVTSSQQQASHLLELDLSAANKAIIQAYVTLLDQSFLNRIKWLKQYGFAKNRAFHTFVFKTLIITKFGYRRK”, the “soluble on expression in E. coli” value was “not soluble”.
For “MKRILNYPGSKWGLADLIIENMPEHKSYLEPFCGSCAVFMNKQKATLETINDLDGRLVNLFKTMRDNPEELQYLIMHTLYSREEYMLSHEISSDSLEDARRMAVRLWFAVGGKTNANVGFRKNVSWNGPYNAYEWNDMYNRIGIAAARLKDAQIENVDAIKLIEQHNDKDTLIYCDPPYVATSLASSHYQHDFSLEQHKELLKVLKKHEGKVMLSGYESELYKQELSDWPALKTMTKVGITSEKKSDRQEIIWCNFEPPMQLNLFKEEQA”, the “soluble on expression in E. coli” value is on record as “not soluble”.
The same measure for “MPDDKVPTVPDKGADGSPGSSFKNPEILSSQPSESMQAVYEILIQGNNLKTGLPSIVKSQEDLQTLYSVLYGNSLKAPLIDFSKKAVVIAAAGPFNTGGYSIVPVSAIKTGKIINLVFEVKSPGPKDMVTQAFTRPYVIVSVDAEPDTEIFIEINGDAKNDKLDF”: “not soluble”; for “FEDVVGQEHITKTLQNALLQKKFSHAYLFSGPRGTGKTSAAKIFAKAVNCEHAPVDEPCNECAACKGITNGSISDVIEIDAASNNGVDEIRDIRDKVKFAPSAVTYKVYIIDEVHMLSIGAFNALLKTLEEPPEHCIFILATTEPHKIPLTIISRCQRFDFKRITSQAIVGRMNKIVDAEQLQVEEGSLEIIASAADGGMRDALSLLDQAISFSGDILKVEDALLITGAVSQLYIGKLAKSLHDKNVSDALETLNELLQQGKDPAKLIEDMIFYFRDMLLYKTAPGLEGVLEKVKVDETFRELSEQIPAQALYEMIDILNKSHQEMKWTNHPRIFFEVAVVKICQTSHQSAADLPEVDMLMKKIQQLEQEVERLKTTGIKAAAESPKKEAPRVPKGGKSNYKAPVGRIHEILKEATRPDLDLLRNSWGKLLAHLKQQNKVSHAALLNDSEPVAAGSAAFVLKFKYEIHCKMVAEDNNGVRTNLEQILESMLGKRMDLIGVPEAQWGKIREEFLEDHQQANEGSNEPAEEDPLIAEAKKLVGADLIEIKD”: “not soluble”; for “MAHHHHHHMRLILLGAPGAGKGTQANFIKEKFGIPQISTGDMLRAAVKAGTPLGVEAKTYMDEGKLVPDSLIIGLVKERLKEADCANGYLFDGFPRTIAQADAMKEAGVAIDYVLEIDVPFSEIIERMSGRRTHPASGRTYHVKFNPPKVEGKDDVTGEPLVQRDDDKEETVKKRLDVYEAQTKPLITYYGDWARRGAENGLKAPAYRKISGLGAVEEIRARVRRAQVSE”: “soluble”.
